Source: patent US20170189505A1

B1: SEQ ID No 222 peptide … (peptide)
peptide: TFSVSSHLF
B2: SEQ ID No 204 peptide … (peptide)
peptide: TYELRYFQI
B3: SEQ ID No 199 peptide … (peptide)
peptide: RYAEEVGIF
B4: SEQ ID No 207 peptide … (peptide)
peptide: AYVVFVSTL
B5: SEQ ID No 277 peptide … (peptide)
peptide: VYQGHTALL
B6: SEQ ID No 269 peptide … (peptide)
peptide: YFIDSTNLKTHF
B7: SEQ ID No 200 peptide … (peptide)
peptide: YYGPSLFLL
B8: SEQ ID No 287 peptide … (peptide)
peptide: LYITEPKTI
B9: SEQ ID No 285 peptide … (peptide)
peptide: HYPPVQVLF
B10: SEQ ID No 281 peptide … (peptide)
peptide: PYRLIFEKF
B11: SEQ ID No 268 peptide … (peptide)
peptide: QYLGQIQHI
B12: SEQ ID No 270 peptide … (peptide)
peptide: NYYEVHKELF
B13: SEQ ID No 202 peptide … (peptide)
peptide: VYWDSAGAAHF
B14: SEQ ID No 209 peptide … (peptide)
peptide: TYKDEGNDYF
B15: SEQ ID No 201 peptide … (peptide)
peptide: IYATEAHVF
B16: SEQ ID No 218 peptide … (peptide)
peptide: YYKSTSSAF

What follows are binders tested against HLA-A*24 (human) (assay: UV peptide exchange, anti-b2m ELISA).
B1 gave a peptide exchange yield of 50 to 75%. In the case of B2, the peptide exchange yield is reported as greater than 75%. Binder B3 has a peptide exchange yield of 50 to 75%. B4 was tested, and the peptide exchange yield was 20 to 49%. B5 was tested, and the peptide exchange yield was greater than 75%. B6 showed a peptide exchange yield of 50 to 75%. B7 gave a peptide exchange yield of 50 to 75%. B8 gave a peptide exchange yield of 50 to 75%. With B9 the peptide exchange yield was 50 to 75%. Work on B10 yielded a peptide exchange yield of 20 to 49%. B11 was tested, and the peptide exchange yield was 50 to 75%. For B12, the peptide exchange yield was 50 to 75%. B13 showed a peptide exchange yield greater than 75%. In the case of B14, the peptide exchange yield is reported as 50 to 75%. B15 gave a peptide exchange yield of 50 to 75%. B16 showed a peptide exchange yield of 50 to 75%.
